Measurements as given in article PMC2566859 (Nucleic Acids Research, 2008).

B1: TM1768, large subunit of Thermotoga maritima Exonuclease VII (XseA homolog) (enzyme, UniProt Q9X289 1-394, looked up)
chain: MKDYTYSVTEINEYIKDLIEGDPYLTNVSVYGEISGVRPRKGHIFFSLVEENARLECVIFGGDNMGIRLQEGRMALVEGSVSVYIPHGTYRFICSNVRYLDQAGMYQIKFETTLKKLLEEGLLSRPKKTVPRFPRKIGIITSRDSAALQDVIRTARERKAPIEIYVFHTSVQGDSAREELIKALRKANEYDLDLVMIVRGGGSKEDLWVFNEEDVIREILRLRHPVVTGIGHEIDRVIADFVADVSMHTPTGAAEYVIPDASEIHEDLDSFFEKLITSLSNRFDMEERRLETLYFRLRMIGRRKLELNEFKIERVKELAAKLRKKLMDYFEHNQKKLDSLGRMLESLNPLRPLERGFVLVKKDEKIVKESTDLKRGDVVSLVFKDGTKKAQVIG
B2: TM1769, small subunit of Thermotoga maritima Exonuclease VII (XseB homolog) (natural protein, UniProt Q9X290 1-75, looked up)
chain: MNFEEMMKELEEIVNRLENEDLPLEESIKLFERGVELYRKCKEILQQNRLKIIDVMKELEGEIDASGRDQENELR

Tests used:
[1] = target: B2; assay: SEC
SEC = target: the molecule itself; assay: SEC

Binder	stoichiometry N [1]	stoichiometry N (SEC)
B1	~4 TM1769 per TM1768	
B2		4
